Experimental findings from the supplement of paper PMC5998384 are described below.

In series [1] the test system is HeLa Kyoto. Briefly: melting temperature (median over replicates), in situ; higher = more thermally stable.
Series [2] relates to HeLa Kyoto. The experiment in a line: solubility in G1/S (NP-40 vs SDS abundance) (log2 ratio); higher = more soluble. The conditions noted are these: cell cycle stage: G1/S.
In series [3] the test system is HeLa Kyoto. The experiment in a line: thermal stability score vs G1/S (z-score of summed log2 fold changes over temperatures); higher = more thermally stable than in G1/S.
The test system of series [4] is HeLa Kyoto. Briefly: solubility change mitosis vs G1/S (difference of NP-40 vs SDS log2 ratios) (log2 ratio difference); higher = more soluble in mitosis.
Where [5] appears, read: cell cycle stage: early G1 (4.5 h after nocodazole release).
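For melting temperature (median over replicates), in situ in this document: HeLa Kyoto cells synchronized by double thymidine or nocodazole block, proteins quantified by TMT10plex mass spectrometry, three independent biological replicates.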
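For solubility change mitosis vs G1/S (difference of NP-40 vs SDS log2 ratios) in this document: synchronized HeLa Kyoto cells (double thymidine block for G1/S, nocodazole release for mitosis), protein amounts in NP-40 versus SDS lysates quantified by mass spectrometry, three biological replicates.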
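For solubility in G1/S (NP-40 vs SDS abundance) in this document: HeLa Kyoto cells arrested at G1/S by double thymidine block, proteins quantified by TMT10plex mass spectrometry in mild NP-40 versus SDS extracts, three biological replicates.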
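For thermal stability score vs G1/S (z-score of summed log2 fold changes over temperatures) in this document: synchronized HeLa Kyoto cells, proteins quantified by TMT10plex mass spectrometry, three biological replicates, mitosis taken 0.5 h after nocodazole release, G1/S directly after double thymidine block.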

Turning to “MASASYHISNLLEKMTSSDKDFRFMATNDLMTELQKDSIKLDDDSERKVVKMILKLLEDKNGEVQNLAVKCLGPLVSKVKEYQVETIVDTLCTNMLSDKEQLRDISSIGLKTVIGELPPASSGSALAANVCKKITGRLTSAIAKQEDVSVQLEALDIMADMLSRQGGLLVNFHPSILTCLLPQLTSPRLAVRKRTIIALGHLVMSCGNIVFVDLIEHLLSELSKNDSMSTTRTYIQCIAAISRQAGHRIGEYLEKIIPLVVKFCNVDDDELREYCIQAFESFVRRCPKEVYPHVSTIINICLKYLTYDPNYNYDDEDEDENAMDADGGDDDDQGSDDEYSDDDDMSWKVRRAAAKCLDAVVSTRHEMLPEFYKTVSPALISRFKEREENVKADVFHAYLSLLKQTRPVQSWLCDPDAMEQGETPLTMLQSQVPNIVKALHKQMKEKSVKTRQCCFNMLTELVNVLPGALTQHIPVLVPGIIFSLNDKSSSSNLKIDALSCLYVILCNHSPQVFHPHVQALVPPVVACVGDPFYKITSEALLVTQQLVKVIRPLDQPSSFDATPYIKDLFTCTIKRLKAADIDQEVKERAISCMGQIICNLGDNLGSDLPNTLQIFLERLKNEITRLTTVKALTLIAGSPLKIDLRPVLGEGVPILASFLRKNQRALKLGTLSALDILIKNYSDSLTAAMIDAVLDELPPLISESDMHVSQMAISFLTTLAKVYPSSLSKISGSILNELIGLVRSPLLQGGALSAMLDFFQALVVTGTNNLGYMDLLRMLTGPVYSQSTALTHKQSYYSIAKCVAALTRACPKEGPAVVGQFIQDVKNSRSTDSIRLLALLSLGEVGHHIDLSGQLELKSVILEAFSSPSEEVKSAASYALGSISVGNLPEYLPFVLQEITSQPKRQYLLLHSLKEIISSASVVGLKPYVENIWALLLKHCECAEEGTRNVVAECLGKLTLIDPETLLPRLKGYLISGSSYARSSVVTAVKFTISDHPQPIDPLLKNCIGDFLKTLEDPDLNVRRVALVTFNSAAHNKPSLIRDLLDTVLPHLYNETKVRKELIREVEMGPFKHTVDDGLDIRKAAFECMYTLLDSCLDRLDIFEFLNHVEDGLKDHYDIKMLTFLMLVRLSTLCPSAVLQRLDRLVEPLRATCTTKVKANSVKQEFEKQDELKRSAMRAVAALLTIPEAEKSPLMSEFQSQISSNPELAAIFESIQKDSSSTNLESMDTS [CAND1]”, the melting temperature in the series on HeLa Kyoto [1] (cell cycle stage: G1/S) is 56.9 °C; with HeLa Kyoto [1] (cell cycle stage: mitosis) it was 56.2 °C. For the same sequence, the “solubility in G1/S (log2)” value in the series with HeLa Kyoto [2] amounted to 0.0808. Moreover, the thermal stability score in the series on HeLa Kyoto [3] (setting [5]) is -0.92; in the series on HeLa Kyoto [3] (cell cycle stage: mitosis), -0.546. For the same sequence, the “solubility change mitosis (log2)” value with HeLa Kyoto [4] was -0.0927.
Sequence “MASGQGPGPPRQECGEPALPSASEEQVAQDTEEVFRSYVFYRHQQEQEAEGVAAPADPEMVTLPLQPSSTMGQVGRQLAIIGDDINRRYDSEFQTMLQHLQPTAENAYEYFTKIATSLFESGINWGRVVALLGFGYRLALHVYQHGLTGFLGQVTRFVVDFMLHHCIARWIAQRGGWVAALNLGNGPILNVLVVLGVVLLGQFVVRRFFKS [BAK1]” displayed a melting temperature with HeLa Kyoto [1] (cell cycle stage: mitosis) of 55.7 °C. Besides, the “solubility in G1/S (log2)” value in the series with HeLa Kyoto [2] is -0.215. Besides, the thermal stability score in the series with HeLa Kyoto [3] (setting [5]) is -0.0676; with HeLa Kyoto [3] (cell cycle stage: mitosis), -0.207. Moreover, the “solubility change mitosis (log2)” value with HeLa Kyoto [4] was -0.0672.
Turning to “MASGSVAECLQQETTCPVCLQYFAEPMMLDCGHNICCACLARCWGTAETNVSCPQCRETFPQRHMRPNRHLANVTQLVKQLRTERPSGPGGEMGVCEKHREPLKLYCEEDQMPICVVCDRSREHRGHSVLPLEEAVEGFKEQIQNQLDHLKRVKDLKKRRRAQGEQARAELLSLTQMEREKIVWEFEQLYHSLKEHEYRLLARLEELDLAIYNSINGAITQFSCNISHLSSLIAQLEEKQQQPTRELLQDIGDTLSRAERIRIPEPWITPPDLQEKIHIFAQKCLFLTESLKQFTEKMQSDMEKIQELREAQLYSVDVTLDPDTAYPSLILSDNLRQVRYSYLQQDLPDNPERFNLFPCVLGSPCFIAGRHYWEVEVGDKAKWTIGVCEDSVCRKGGVTSAPQNGFWAVSLWYGKEYWALTSPMTALPLRTPLQRVGIFLDYDAGEVSFYNVTERCHTFTFSHATFCGPVRPYFSLSYSGGKSAAPLIICPMSGIDGFSGHVGNHGHSMETSP [TRIM27]”, the melting temperature in the series with HeLa Kyoto [1] (cell cycle stage: G1/S) stood at 50.9 °C; in the series on HeLa Kyoto [1] (cell cycle stage: mitosis) it was 50.5 °C. Moreover, in the series on HeLa Kyoto [2], the “solubility in G1/S (log2)” value was -0.499. In addition, the thermal stability score in the series with HeLa Kyoto [3] (setting [5]) turned out to be 1.44; with HeLa Kyoto [3] (cell cycle stage: mitosis), 3.24. For the same sequence, in the series with HeLa Kyoto [4], the “solubility change mitosis (log2)” value was -0.135.
Take “MASGVQVADEVCRIFYDMKVRKCSTPEEIKKRKKAVIFCLSADKKCIIVEEGKEILVGDVGVTITDPFKHFVGMLPEKDCRYALYDASFETKESRKEELMFFLWAPELAPLKSKMIYASSKDAIKKKFQGIKHECQANGPEDLNRACIAEKLGGSLIVAFEGCPV [DSTN]”: the results for the melting temperature in the series on HeLa Kyoto [1] (cell cycle stage: G1/S) and with HeLa Kyoto [1] (cell cycle stage: mitosis) were 54.1 °C and 53.3 °C, respectively. The “solubility in G1/S (log2)” value with HeLa Kyoto [2] was determined as 0.0748. Besides, the thermal stability score in the series with HeLa Kyoto [3] (setting [5]) was -0.977; in the series with HeLa Kyoto [3] (cell cycle stage: mitosis), -2.53. The “solubility change mitosis (log2)” value in the series with HeLa Kyoto [4] is -0.06.
For the sequence “MASKCPKCDKTVYFAEKVSSLGKDWHKFCLKCERCSKTLTPGGHAEHDGKPFCHKPCYATLFGPKGVNIGGAGSYIYEKPLAEGPQVTGPIEVPAARAEERKASGPPKGPSRASSVTTFTGEPNTCPRCSKKVYFAEKVTSLGKDWHRPCLRCERCGKTLTPGGHAEHDGQPYCHKPCYGILFGPKGVNTGAVGSYIYDRDPEGKVQP [CRIP2]”, the melting temperature worked out at 55 °C in the series with HeLa Kyoto [1] (cell cycle stage: G1/S) and 53.2 °C in the series with HeLa Kyoto [1] (cell cycle stage: mitosis). Moreover, the “solubility in G1/S (log2)” value in the series with HeLa Kyoto [2] came out at 0.608. The thermal stability score in the series with HeLa Kyoto [3] (setting [5]) is -3.58; with HeLa Kyoto [3] (cell cycle stage: mitosis) it was -3.7. Besides, the “solubility change mitosis (log2)” value in the series on HeLa Kyoto [4] turned out to be 0.0882.
“MASLEVSRSPRRSRRELEVRSPRQNKYSVLLPTYNERENLPLIVWLLVKSFSESGINYEIIIIDDGSPDGTRDVAEQLEKIYGSDRILLRPREKKLGLGTAYIHGMKHATGNYIIIMDADLSHHPKFIPEFIRKQKEGNFDIVSGTRYKGNGGVYGWDLKRKIISRGANFLTQILLRPGASDLTGSFRLYRKEVLEKLIEKCVSKGYVFQMEMIVRARQLNYTIGEVPISFVDRVYGESKLGGNEIVSFLKGLLTLFATT [DPM1]”: the melting temperature was 53.2 °C in the series with HeLa Kyoto [1] (cell cycle stage: G1/S) and 52.7 °C with HeLa Kyoto [1] (cell cycle stage: mitosis). The “solubility in G1/S (log2)” value with HeLa Kyoto [2] was -0.0525. Further, the thermal stability score with HeLa Kyoto [3] (setting [5]) was -2.69; in the series with HeLa Kyoto [3] (cell cycle stage: mitosis), 1.91. For the same sequence, in the series on HeLa Kyoto [4], the “solubility change mitosis (log2)” value was determined as 0.0355.
“MASNVTNKTDPRSMNSRVFIGNLNTLVVKKSDVEAIFSKYGKIVGCSVHKGFAFVQYVNERNARAAVAGEDGRMIAGQVLDINLAAEPKVNRGKAGVKRSAAEMYGSVTEHPSPSPLLSSSFDLDYDFQRDYYDRMYSYPARVPPPPPIARAVVPSKRQRVSGNTSRRGKSGFNSKSGQRGSSKSGKLKGDDLQAIKKELTQIKQKVDSLLENLEKIEKEQSKQAVEMKNDKSEEEQSSSSVKKDETNVKMESEGGADDSAEEGDLLDDDDNEDRGDDQLELIKDDEKEAEEGEDDRDSANGEDDS [HNRNPC]”: the melting temperature with HeLa Kyoto [1] (cell cycle stage: G1/S) is 47.4 °C; in the series with HeLa Kyoto [1] (cell cycle stage: mitosis) it was 49.5 °C. Besides, the “solubility in G1/S (log2)” value with HeLa Kyoto [2] is -0.0638. For the same sequence, the thermal stability score came out at 7.33 in the series with HeLa Kyoto [3] (setting [5]) and 16.5 in the series on HeLa Kyoto [3] (cell cycle stage: mitosis). The “solubility change mitosis (log2)” value in the series with HeLa Kyoto [4] was 0.36.
